Here are results for one molecule from paper PMC4197845 (International journal of cancer. Journal international du …, 2011).

Assay [1] deals with EGFR as used for SPR (BIAcore) (Homo sapiens, UniProt P00533). The assay can be described thus: SPR.
Assay [2] concerns the target EGFR extra-cellular domain (EGFR-ECD; a.a. 1-614) fused to a human IgG1 Fc. The assay can be described thus: ELISA. (In an ELISA, binding on a coated surface is turned into a signal by an enzyme label.)

B1: 38G7 nanobody (VHH)
VHH: EVQLVESGGGLVQAGGSLRLSCAASGRTFSSYVMGWFRQATGKEREFVATIAWDSGSTYYADSVKGRFTISRDNAKNTVHLQMNSLKPEDTAVYYCAASYNVYYNNYYYPISRDEYDYWGQGTQVTVSS
For B1, in assay [1], the koff stood at 0.0002 s⁻¹. For the same molecule, inhibition in assay [2] was half-maximal at 10 nM (IC50).

By koff is commonly meant the first-order rate constant of dissociation. High values mean fast dissociation, low ones slow dissociation. By IC50 is commonly meant the concentration that inhibits the measured activity by half. Low values mean greater potency, high ones weaker potency.
